The RNAGym collection of RNA variant scans (doi:10.7554/elife.80360)

B1: HDV Ribozyme (parent)
chain: GGCCGGCAUGGUCCCAGCCUCCUCGCUGGCGCCGGCUGGGCAACAUUCCGAGGGGACCGUCCCCUCGGUAAUGGCGAAUGGGACCCA

Variants of: B1
Experiment: self-cleavage, relative activity (ratio to wild type); higher = more cleavage; co-transcriptional

In order of rising self-cleavage:
1. GGCCGGCAAGGUCCCAGCCUCCUCGCUGGCGCCGGCAGGGCAACAUUCCGAGGGGACCGUCCCCUCGGUAAUGGCGAAUGGGACCCA [U9A U37A]  0
2. GGCCGGCAAGGUCCCAGCCUCCUCGCUGCCGCCGGCUGGGCAACAUUCCGAGGGGACCGUCCCCUCGGUAAUGGCGAAUGGGACCCA [U9A G29C]  0
3. GGCCGGCAAGGUCCCAGCGUCCUCGCUGGCGCCGGCUGGGCAACAUUCCGAGGGGACCGUCCCCUCGGUAAUGGCGAAUGGGACCCA [U9A C19G]  0.0665
4. GGCCGGCAAGGUCCCAGCUUCCUCGCUGGCGCCGGCUGGGCAACAUUCCGAGGGGACCGUCCCCUCGGUAAUGGCGAAUGGGACCCA [U9A C19U]  0.113
5. GGCCGGCAAGGUCCCAGCCUCCUCGCUAGCGCCGGCUGGGCAACAUUCCGAGGGGACCGUCCCCUCGGUAAUGGCGAAUGGGACCCA [U9A G28A]  0.138
6. GGCCGGCAAGGUCCCAGCCUUCUCGCUGGCGCCGGCUGGGCAACAUUCCGAGGGGACCGUCCCCUCGGUAAUGGCGAAUGGGACCCA [U9A C21U]  0.155
7. GGCCGGCAAGGUCCCAGCCUCCUCGCUGGCGCCGGCUGCGCAACAUUCCGAGGGGACCGUCCCCUCGGUAAUGGCGAAUGGGACCCA [U9A G39C]  0.178
8. GGCCGGCAAGGUCCCAGCCUCCUCGCUGGCGCCGGCUGGGCAACAUUCCGAGGGGACCGUCCCCUCGGUAAUGGCGAAUUGGACCCA [U9A G80U]  0.213
9. GGCCGGCAAGGUCCCAGCCUCCUCGCUGGCGCCAGCUGGGCAACAUUCCGAGGGGACCGUCCCCUCGGUAAUGGCGAAUGGGACCCA [U9A G34A]  0.232
10. GGCCGGCAAGGUCCCAGCCUCCUCGCUGGCGCCGUCUGGGCAACAUUCCGAGGGGACCGUCCCCUCGGUAAUGGCGAAUGGGACCCA [U9A G35U]  0.264
11. GGCCGGCAAGGUCCCAGCCUCCUCGCUGGCCCCGGCUGGGCAACAUUCCGAGGGGACCGUCCCCUCGGUAAUGGCGAAUGGGACCCA [U9A G31C]  0.287
12. GGCCGGCAAGGUCCCAGCCUCCUCGCUGGCGCCGGCUGGCCAACAUUCCGAGGGGACCGUCCCCUCGGUAAUGGCGAAUGGGACCCA [U9A G40C]  0.325
13. GGCCGGCAAGGUCCCAGCCUCCUCGCUGGCGCCGGCUGGGCAACAUUCCGAGGGGACCGUCCCCUCGGUAAUGGCGAAUGCGACCCA [U9A G81C]  0.35
14. GGCCGGCAAGGACCCAGCCUCCUCGCUGGCGCCGGCUGGGCAACAUUCCGAGGGGACCGUCCCCUCGGUAAUGGCGAAUGGGACCCA [U9A U12A]  0.361
15. GGCCGGCAAGGUCCCAGCCUCCUCGCUGGCGCCGGCUGGGCAACAUUCCGAGGGGACCGUCCGCUCGGUAAUGGCGAAUGGGACCCA [U9A C63G]  0.502
16. GGCCGGCAAGGUCCCAGCCUCCUCGCUGGCGCCGGCUGGGCAACAUUCAGAGGGGACCGUCCCCUCGGUAAUGGCGAAUGGGACCCA [U9A C49A]  0.554
17. GGCCGGCAAGGUCCCAGCCUCCUCGCUGGCGCCGGCUGGGCAACAUUCCGAGGGGACCGUCCCCUCGGUAAUGGCGAAUGGGACCAA [U9A C86A]  0.554
18. GGCCGGCAAGGUCCAAGCCUCCUCGCUGGCGCCGGCUGGGCAACAUUCCGAGGGGACCGUCCCCUCGGUAAUGGCGAAUGGGACCCA [U9A C15A]  0.677
19. GGCCGGCAAGGUCCCAGCCUCCUCGCUGGCGCCGGCUGGGCAACAUUCCGAGGGGACCGUCCCCUCGGUAAUGGCGAAUGGGCCCCA [U9A A83C]  0.731
20. GGCCGGCAAGGUCCCAGCCUCCUCGCUGGCGCCGGCUGGGCAACAUUCCGAGGGGACCGUCCCCUCGGUAAUGGCGGAUGGGACCCA [U9A A77G]  0.751
21. GGCCGGCAAGGUCCCAGCCUCCUCGCUGGCGCCGGCUGGGCAACAUUCCGAGGGGACCGUCCCCUCCGUAAUGGCGAAUGGGACCCA [U9A G67C]  0.831
22. GGCCGGCAAGGUCCCAGCCUCCUCGCUGGCGCCGGCUGGGAAACAUUCCGAGGGGACCGUCCCCUCGGUAAUGGCGAAUGGGACCCA [U9A C41A]  0.831
23. GGCCGGCAAGGUCCCAGCCUCCUCGCUGGCGCCGGCUGGGCAACAUUCGGAGGGGACCGUCCCCUCGGUAAUGGCGAAUGGGACCCA [U9A C49G]  0.88
24. GGCCGGCAAGGUCCCAGCCUCCUCGCUGGCGCCGGCUGGGCAACAUUCCGAGGGUACCGUCCCCUCGGUAAUGGCGAAUGGGACCCA [U9A G55U]  0.895
25. GGCCGGCAAGGUCCCAGCCUCCUCGCUGGCGCCGGCUGUGCAACAUUCCGAGGGGACCGUCCCCUCGGUAAUGGCGAAUGGGACCCA [U9A G39U]  0.917
26. GGCCGGCAAGGUCCCAGCCUCCUCGCUGGCGCCGGCUGGGCAACAUUCCGAGGAGACCGUCCCCUCGGUAAUGGCGAAUGGGACCCA [U9A G54A]  0.943
27. GGCCGGCAAGGUCCCAGCCUCCUCGCUGGCGCCGGCUGGGCAACAUUCCGAGGGGACCGUCCCCUUGGUAAUGGCGAAUGGGACCCA [U9A C66U]  1.01
28. GGCCGGCAAGGUCCCAGCCUCCUCGCUGGCGCCGGCUGGGCAACAUUCCGAGGGGACCGUCCCCUCGGUAAUGGCUAAUGGGACCCA [U9A G76U]  1.02
29. GGCCGGCAAAGUCCCAGCCUCCUCGCUGGCGCCGGCUGGGCAACAUUCCGAGGGGACCGUCCCCUCGGUAAUGGCGAAUGGGACCCA [U9A G10A]  1.03
30. GGCCGGCAAGGUCCCAGCCUCCUCGCUGGCGCCGGCUGGGCAACAUUCCGAGGGGACCGUCCCCUCGGUAAUGGCGAAUGGGACCGA [U9A C86G]  1.04
31. GGCCGGCAAGGUCCCAGCCUCCUCGCUGGCGCCGGCUGGGCAACAUUCCGAGGGGACCGUCUCCUCGGUAAUGGCGAAUGGGACCCA [U9A C62U]  1.06
32. GGCCGGCAAGGUCCCAGCCUCCCCGCUGGCGCCGGCUGGGCAACAUUCCGAGGGGACCGUCCCCUCGGUAAUGGCGAAUGGGACCCA [U9A U23C]  1.08
